Laboratory results reported in patent US20120237496.
Residue numbers refer to the chain shown, from its start.

T1: Peptide-13 (not fully specified)
T1 chain: CRPPGFSPFRK

T2: Peptide-3
T2 chain: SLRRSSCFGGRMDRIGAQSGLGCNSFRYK

T3: Peptide-5 (not fully specified)
T3 chain: CDRVYIHPFHLK

T4: Peptide-6a
T4 chain: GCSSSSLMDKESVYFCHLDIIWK

T5: Peptide-6b
T5 chain: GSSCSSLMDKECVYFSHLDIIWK

T6: Peptide-8 (not fully specified)
T6 chain: CQLYENKPRRPYILK

B1: C6 (protein)
chain: YPYDVPDYAYPYDVPDYAYPYDVPDYAGSYDDGICKSSDCIKSAARLIQNMDATTEPCTDFFKYACGGWLKRNVIPETSSRYGNFDILRDELEVVLKDVLQEPKTEDIVAVQKAKALYRSCINESAIDSRGGEPLLKLLPDIYGWPVATENWEQKYGASWTAEKAIAQLNSKYGKKVLINLFVGTDDKNSVNHVIHIDQPRLGLPRGDYYECTGIYKEACTAYVDFMISVARLIRQEERLPIDENQLALEMNKVMELEKEIANATAKPEDRNDPMLLYNKMTLAQIQNNFSLEINGKPFSWLNFTNEIMSTVNISITNEEDVVVYAPEYLTKLKPILTKYSARDLQNLMSWRFIMDLVSSLSRTYKESRNAFRKALYVTTSETATWRRCANYVNGNMMNAVGRLYVEAAFAGESKHVVEDLIAQIREVFIQTLDDLTWMDAETKKRAEEKALAIKERIGYPDDIVSNDNKLNNEYLELNYKEDEYFENIIQNLKFSQSKQLKKLREKVDKDEWISGAAVVNAFYSSGRNQIVFPAGILQPPFFSAQQSNSLNYGGIGMVIGHEITHGFMDNVRNFNKDVDLVDWWTQQSASNFKEQSQCMVYQYGNFSWDLAGGQHLNGINTLGENIADNGGLGQAYRAYQNYIKKNGEEKLLPGLDLNHKQLFFLNFAQVWCGTYRPEYAVNSIKTDVHSPKNFRIIGTLQNSAEFSEAFHCRKNSYMNPEKKCRVW
B2: D4 (protein)
chain: B1 chain with R206S, G207R, A266S, D356G, M569F, V572G, F575P, V579D
B3: D5 (protein)
chain: B1 chain with R206S, G207R, A266S, D356G, M569F, V572G, F575P, V579D, G624Q
B4: C2 (protein)
chain: B1 chain with F226L, M569F, V572G, F575P, V579D
B5: D9 (protein)
chain: B1 chain with G207R, F226L, A266S, D356G, F575P, V579D
B6: C5 (protein)
chain: B1 chain with M569F, V572G, F575P, V579D
B7: C3 (protein)
chain: B1 chain with F226L, M398E, M569F, V572G, F575P, V579D
B8: C7 (protein)
chain: B1 chain with M398E, M569F, V579L
B9: D6 (protein)
chain: B1 chain with G207R, F226L, A266S, F575P, V579D
B10: C4 (protein)
chain: B1 chain with M569F

What follows are proteins tested against Peptide-1.

In order of falling kapp ratio vs G399V/G714K (B1):
1. B8  2.77 fold
2. B10  2.41 fold
3. B1  2.35 fold
4. B6  1.95 fold
5. B4  1.06 fold
6. B7  0.86 fold

In order of rising activity relative to G399V/G714K (B1):
1. B5  1.07 fold
2. B9  2.24 fold
3. B2  2.43 fold
4. B3  2.94 fold

Target: T1, Peptide-13

In order of falling kapp ratio vs G399V/G714K (B1):
1. B1  0.85 fold
2. B7  0.85 fold
3. B4  0.68 fold
4. B6  0.63 fold
5. B10  0.62 fold
6. B8  0.43 fold

These proteins were tested against Peptide-2.

In order of falling kapp ratio vs G399V/G714K (B1):
1. B8  2.83 fold
2. B10  2.43 fold
3. B1  2.36 fold
4. B6  1.92 fold
5. B4  0.88 fold
6. B7  0.81 fold

In order of falling activity relative to G399V/G714K (B1):
1. B3  3.37 fold
2. B2  2.71 fold
3. B9  2.37 fold
4. B5  1.11 fold

Target: T2, Peptide-3

In order of rising kapp ratio vs G399V/G714K (B1):
1. B1  0.24 fold
2. B4  0.24 fold
3. B6  0.24 fold
4. B7  0.24 fold
5. B8  0.24 fold
6. B10  0.24 fold

What follows are proteins tested against Peptide-4.

In order of falling kapp ratio vs G399V/G714K (B1):
1. B1  1.26 fold
2. B8  0.96 fold
3. B7  0.79 fold
4. B6  0.74 fold
5. B4  0.72 fold
6. B10  0.44 fold

In order of falling activity relative to G399V/G714K (B1):
1. B2  0.91 fold
2. B3  0.9 fold
3. B9  0.89 fold
4. B5  0.86 fold

Target: T3, Peptide-5

In order of rising kapp ratio vs G399V/G714K (B1):
1. B7  0.15 fold
2. B4  0.19 fold
3. B6  0.22 fold
4. B10  0.27 fold
5. B1  0.29 fold
6. B8  0.34 fold

In order of falling activity relative to G399V/G714K (B1):
1. B2  0.08 fold
2. B3  0.08 fold
3. B5  0.08 fold
4. B9  0.08 fold

Target: T4, Peptide-6a

In order of rising kapp ratio vs G399V/G714K (B1):
1. B4  0.14 fold
2. B7  0.18 fold
3. B6  0.23 fold
4. B1  0.28 fold
5. B10  0.37 fold
6. B8  0.42 fold

In order of rising activity relative to G399V/G714K (B1):
1. B5  0.06 fold
2. B2  0.28 fold
3. B3  0.35 fold
4. B9  0.35 fold

Target: T5, Peptide-6b

In order of falling kapp ratio vs G399V/G714K (B1):
1. B10  0.29 fold
2. B8  0.28 fold
3. B1  0.19 fold
4. B6  0.18 fold
5. B4  0.1 fold
6. B7  0.09 fold

What follows are proteins tested against Peptide-7.

In order of rising kapp ratio vs G399V/G714K (B1):
1. B10  0.44 fold
2. B4  0.47 fold
3. B8  0.47 fold
4. B1  0.61 fold
5. B7  0.64 fold
6. B6  0.72 fold

In order of rising activity relative to G399V/G714K (B1):
1. B5  0.43 fold
2. B2  0.51 fold
3. B9  0.68 fold
4. B3  0.9 fold

Target: T6, Peptide-8

In order of rising kapp ratio vs G399V/G714K (B1):
1. B4  0.34 fold
2. B1  0.37 fold
3. B7  0.37 fold
4. B10  0.4 fold
5. B6  0.41 fold
6. B8  0.46 fold
